Laboratory results: PMC10127692, “SARS-CoV-2 SUD2 and Nsp5 Conspire to Boost Apoptosis of Respiratory Epithelial Cells via an Augmented Interaction with the G-Quadruplex of BclII”

B1: Bcl2G4WT (G4 folded) (structured_DNA)
DNA: GGGCGCGGGAGGAATTGGGCGGG
B2: MYCG4 (structured_DNA)
DNA: TTGAGGGTGGGTAGGGTGGGTAA

What was measured:
[1] = target: T1, SUD2core (SUD2-N+M of Nsp3) (SARS-CoV-2, UniProt P0DTC1 1230-1493); assay: BLI; 100 mM K+; settings: protein: recombinant; tags: His; label: 5'-biotin (BLI, pulldown); Cy5 (EMSA); G4, folded in 100 mM K+
[2] = target: SUD2core (SUD2-N+M of Nsp3);Nsp5 (SARS-CoV-2;SARS-CoV-2, UniProt P0DTC1;P0DTC1 1230-1493;3264-3569, |); assay: pull-down; 100 mM K+; Nsp5 added; settings: protein: recombinant;recombinant; tags: His;GST; label: 5'-biotin (BLI, pulldown); Cy5 (EMSA); G4, folded in 100 mM K+
[3] = target: T1, SUD2core (SUD2-N+M of Nsp3); assay: pull-down; 100 mM K+; positive control; settings: protein: recombinant; tags: His; label: 5'-biotin; G4

Binder	Kd [1] [µM]	binding signal [2]	binding result [3]
B1	0.085	6.3 fold SUD2core retained vs without Nsp5	
B2			binds
